Laboratory results: US20150174265A1 (MIT, published 2015)

B1: E6N2 (Fc fusion)
chain: VSDVPRDLEVVAATPTSLLISWFDYAVTYYRITYGETGGNSPVQEFTVPGWISTATISGLKPGVDYTITVYAVTDNSRWPFRSTPISINYRTEIDKPSQ

Legend:
[1] = test system: E6N2 (anti-EGFR Fn3 clone E6 - mouse IgG2a Fc - PKR dsRBD) C121V,C135V (Homo sapiens); experiment: flow
[2] = biological target: epidermal growth factor receptor (EGFR) on human cancer cell lines (human, UniProt P00533 25-1210)

Molecule	Kd [1] [nM]	binding signal [1] [fold]	Kd [2] [nM]
AllStars Negative Control siRNA, Alexa 488 labeled	3.5	> 100	–
B1	–	–	~2.1
